Laboratory results as given in the DeepSol protein solubility set.

Assay: soluble on expression in E. coli; label from the status in PepcDB or PDB records

Row | Sequence | soluble on expression in E. coli
1 | STGVPATDLQQSIMKNVQPIELYFDNELVTDCSALGVYDNSYLVPLHLFEFDFDTIVLGGRHYKKAECEKVEFELEVNGDMVSSDACLLRVPSGPKVRNIVHLFTNEIELKKMTQVTGIMNSPHQARTVFFGSFLTVRKSILTSDGTVMPNVLSYAAQTSRGYCGAAIVAGSPARIIGIHSAGTGSVAFCSLVSKDALERTLPQKQGNVSRLDDDVRVSVPRRSKLVKSLAYPIFKPDYGPAPLSQFDKRLSDGVKLDEVVFAKHTGDKEISAQDQKWLLRAAHVYAQKVFSRIGFDNQALTEKEAICGIPGLDKMEQDTAPGLPYAQQNKRRKDICDFEEGRLKGAAKFQKDRFMAGDYSDLIYQSFLKDEIRPLEKVRAGKTRLIDVPPMPHVVVGRQLLGRFVAKFHEANGFDIGSAIGCDPDVDWTRFGLELERFRYVYACDYSRFDANHAADAMRVVLNYFFSEDHGFDPGVPAFIESLIDSVHAYEEKRYNIYGGLPSGCSCTSILNTILNNVYILAAMMKAYENFEPDDIQVICYGDDCLIASDFEIDFQQLVPVFSSFGQVITTADKTDFFKLTTLSEVTFLKRAFVPDGAFYKPVMDVKTLEAILSFVRPGTQAEKLLSVAQLAGHCEPEQYERLFEPFVGMYFVPTWRDLRLQWLMKLGC | soluble
2 | STSELDIFVGNTTLIDEDVYRLWLDGYSVTDAVALRVRSGILEQTGATAAVLQSDTMDHYRTFHMLERLLHAPPKLLHQLIFQIPPSRQALLIERYYAFDEAFVREVLGKKLSKGTKKDLDDISTKTGITLKSCRRQFDNFKRVFKVVEEMRGSLVDNIQQHFLLSDRLARDYAAIVFFANNRFETGKKKLQYLSFGDFAFCAELMIQNWTLGAVDSQMDDMDMDLDKEFLQDLKELKVLVADKDLLDLHKSLVCTALRGKLGVFSEMEANFKNLSRGLVNVAAKLTHNKDVRDLFVDLVEKFVEPCRSDHWPLSDVRFFLNQYSASVHSLDGFRHQALWDRYMGTLRGCLLRLYHD | soluble
3 | STSSDPQSHNVFVYGSILEPAVAAVILDRTADTVPAVLHGYHRYKLKGLPYPCIVSSDSGKVNGKVITGVSDAELNNFDVIEGNDYERVTVEVVRMDNSEKVKVETYVWVNKDDPRMYGEWDFEEWRVVHAEKFVETFRKMLEWNKNPNGKSMEEAVGSLLSSGD | soluble
4 | SVDDSKYQCVKLNDGHFMPVLGFGTYAPAEVPKSKALEAVKLAIEAGFHHIDSAHVYNNEEQVGLAIRSKIADGSVKREDIFYTSKLWSNSHRPELVRPALERSLKNLQLDYVDLYLIHFPVSVKPGEEVIPKDENGKILFDTVDLCATWEAMEKCKDAGLAKSIGVSNFNHRLLEMILNKPGLKYKPVCNQVECHPYFNQRKLLDFCKSKDIVLVAYSALGSHREEPWVDPNSPVLLEDPVLCALAKKHKRTPALIALRYQLQRGVVVLAKSYNEQRIRQNVQVFEFQLTSEEMKAIDGLNRNVRYLTLDIFAGPPNYPFSDEY | soluble
5 | SVDILVIPGHVRGDAAVISKVVGRPVYKGTVSPVYIPDIMKILRSGGKLDTEKPAEEVVKLSDYTSKIVFREAFRVGSLRIPLKPPPLLVVAEIPPTVAEDGIAGLAARMERDGASMVAVGTGFDDDPQVVHEKVRTALSALKDSPVIAETPTLDHAYSALKAGASGVIMPVETAVRLASEKPLPGDAFIIVSGEQPEELAKAVESLRTSGYSKVAVDPSLSPPLLGLLESIERFRRASRLLNVPLVFSAANVAEEVQADSHGVHALLALMALEAGASIYYVVEDSYKSYRSTAEAAEAARYASAARTLFSPRIPLTRLFVVKQPRRPPNPVEPPGERVNVDYIPPSMDRTGYAHIQVDHERGVIMLTFYPAGGEPVTFEGRKPTSLLRALTSRFPVSSEHAGYIGYELAKAEIALALGKTYVQDSPVLVPVWGGLDEE | not soluble
6 | SVPIVSAWEKGMEAARALMDKYHVDNDLKANFKLLPDQVEALAAVCKTWLNEEHRGLQLTFTSNKTFVTMMGRFLQAYLQSFAEVTYKHHEPTGCALWLHRCAEIEGELKCLHGSIMINKEHVIEMDVTSENGQRALKEQSSKAKIVKNRWGRNVVQISNTDARCCVHDAACPANQFSGKSCGMFFSEGAKAQVAFKQIKAFMQALYPNAQTGHGHLLMPLRCECNSKPGHAPFLGRQLPKLTPFALSNAEDLDADLISDKSVLASVHHPALIVFQCCNPVYRNSRAQGGGPNCDFKISAPDLLNALVMVRSLWSENFTELPRMVVPEFKWSTKHQYRNVSLPVAHSDARQNPFDF | soluble
7 | TADVRTAENMGVRAYTVATAITFQGSGSYRGERWVDSADIIRQIESLSAEMEPAVAKIGLIRDSDTLSLVVDCLKKVFPSIRIVWDPVLRASADSSAGQADRFNLEDITALSRIDFITPNLPEARHLLGCEPDDETLLDFYRRSGVGLVLKGGHAGESVVTDRIVYDGRCEALRLLRGGTGKHGTGCAHSTAFAAALALEQEPFTAAGMAQLYVSRLRERASGLLAMHKDLPVDPVVR | not soluble
8 | TAQIKGLTQAQRNANDGISLAQTAEGALGEISNNLQRIRELAVQASNGTNTQTDRDALQAEVTQLQSEIQRVAEQTSFNGQKLLDGSFNGVQFQIGANAGETIGVSKIMNAQTASLGGSLTRTTSTIDATDLTKYDTAMAAGDLTINGVDVGKIDAASTAQERAAQLTEAINRVSSQTNVGASYDKTTGQVTLTSNAAIAVAGAANDATVAGWANNATTGTATTTTGINSLTVSSFTNAQQTITQIDNALKDINTARADLGAVQNRFTSTVANLQSMTENLSSALEHHHHHH | soluble
9 | TAVSLEQLLIAREQRVALQQQCLHEYQQTLLSLTLTAVGPVKKNALLDYVFAKALANITACFNKLSVTATAQFIRPLQTGHEALFVLPIDAKILKRAMIELENSSPLARLWDIDVISQEGHYSRGEFGFAERTCLMCAESAKICARSRRHSIDDLLSEIHTRAQQ | not soluble
10 | TEQATTTDELAFTRPYGEQEKQILTAEAVEFLTELVTHFTPQRNKLLAARIQQQQDIDNGTLPDFISETASIRDADWKIRGIPADLEDRRVEITGPVERKMVINALNANVKVFMADFEDSLAPDWNKVIDGQINLRDAVNGTISYTNEAGKIYQLKPNPAVLICRVRGLHLPEKHVTWRGEAIPGSLFDFALYFFHNYQALLAKGSGPYFYLPKTQSWQEAAWWSEVFSYAEDRFNLPRGTIKATLLIETLPAVFQMDEILHALRDHIVGLNCGRWDYIFSYIKTLKNYPDRVLPDRQAVTMDKPFLNAYSRLLIKTCHKRGAFAMGGMAAFIPSKDEEHNNQVLNKVKADKSLEANNGHDGTWIAHPGLADTAMAVFNDILGSRKNQLEVMREQDAPITADQLLAPCDGERTEEGMRANIRVAVQYIEAWISGNGCVPIYGLMEDAATAEISRTSIWQWIHHQKTLSNGKPVTKALFRQMLGEEMKVIASELGEERFSQGRFDDAARLMEQITTSDELIDFLTLPGYRLLA | soluble
11 | TFFTATDGNHGRGVAWTANKLGQKSVVLMPKGSSEFRLNKIKGEGADASITDLNYDDAVRLANDYAEADDHGVMVQDTAWDGYEEIPAWIMQGYGTMAQEAIEQLKEYGVDRPTHVFVQAGVGSLAGAVQGYVASIYDECPITVVVEADEADCYYKSAEAGDGKPRFVGGDMPTIMAGLACGEPNTIGFEVLKNHAAAFVSAPDWVSAKGMRTLGNPLNGDEKVISGESGAVTTGLLVAAMEREDLADLRKDLKLDENSRILLISTEGDT | not soluble
12 | TGAITVGNKNNDKLTLWTTPAPSPNCRLNAEKDAKLTLVLTKCGSQILATVSVLAVKGSLAPISGTVQSAHLIIRFDENGVLLNNSFLDPEYWNFRNGDLTEGTAYTNAVGFMPNLSAYPKSHGKTAKSNIVSQVYLNGDKTKPVTLTITLNGTQETGDTTPSAYSMSFSWDWSGHNYINEIFATSSYTFSYIAQE | soluble
13 | TGCSVTATRAEEWSDGFNVTYSVSGSSAWTVNLALNGSQTIQASWNANVTGSGSTRTVTPNGSGNTFGVTVMKNGSSTTPAATCAGS | soluble
14 | TGKIDGILSIGVDVTERVKWRKQIEASGARLKSMIDQTPAPTLVLMGDNLVIEQVNTSMLKLLGHEENIVGIPLLTLMPELKGQYIWEQVEKVYREGIPFDQSEVRVSHKRTGMMEDYYYNIAYRPLKED | not soluble
15 | TKNNQQTTPQTNHFNVADPVNKVPNWRKLGPETQRELRDLLYPLDDTGYFIYKYGAISRYLQSQKELDELVDYRTVLPSTQKHFKYDSFNQSVLESKLRKWLMKAIKQHPYFQHFEFDPVLKAQYNINIPAQKITVNAVWFYKKDNDLTTGKPIRYWDQFEIKLKQ | soluble
16 | TLAFCRFSAPGIYFLEKLFHPVASMLVRSTTFLNKHFAKKNHNISVDELSHALELTDKAEISEENNILEGIIRFGGETVKEVMTSRLDMVDLDVRTPFKEVMQCIIENAYSRIPIYSGSRDNIKGVLYIKDLLPHVNKGDNFRWQSLIRPAYFVPETKMIDDLLRDFQANKIHIAIVVDEFGGTSGLVTMEDIIEEIVGEIHDEYDD | not soluble
17 | TLFDKIWDAHVVTTVEDGPTQLYIDRLYCHEVTSPQAFAGLRERGIKVLRPEKVFCMPDHNTPTHDQDKPIEDPISKTQVDTLTKNAKDFGLTHFGMMHPKNGIIHVVGPERALTLPGMTIVCGDSHTSTHGAMGAIAFGIGTSEVEMVLASQCILQSRPKT | not soluble
18 | TLLPQVQVLSWDHYVASSPQIYEPSLMIVAQGSKLARLGPRTLEYGAGHYLVQALSVPFMCETFATREAPLLGVAVGIDRGVLGELVQSMGLAPDAEVQAQTPQSMTSAALDAPMRESVERLLHCLQDPLDAKVLGPARVREVLYTALRGPQAGVL | not soluble
19 | TLTSTLASMMDALETALQPLKKYGFPVESVVLAFSLTLRLLPLMLNTVNEVLDARKARGVAFSLTALGTPVMIRSINRARSIADALMARGAGD | not soluble
20 | TREFNDLCRPHMEALAILCGETVNLVIRVGTQARFLSSAESTGMLRVGDRQGQVLDAELTAGGRILLAELPRETLEQLYLRPVDLADDDREWGDRRLPADEFERFWRELSAARAVGFAVNVQQTEEGVAAFGVAIRNRARTAVGALTVAVPITRFRQHSQGPLVSQIKNAIRELEVDIADLEP | not soluble
21 | TRINLTLVSELADQHLMAEYRQLPRVFGAVRKHVANGKRVRDFKISPTFILGAGHVTFFYDKLEFLRKRQIELIAECLKRGFNIKDTTVQDISDIPQEFRGDYIPHEASIAISQARLDEKIAQRPTWYKYYGKAIYA | soluble
22 | TRNFEWIVGGNITRSRDKIKSLGGEEQIVLSYDNGVQMVNRVGESPYQFYGYQADGVYSTQAEADAANLSNRTGRRYNAGDVRFVDQNGDNRIDDKDRILLGSAAPSYFGGFYTQLKYKGFALSAEFSYSKDNIAYNAVRQQLEAVSTTNNQSIAAVNRWTVEGQKTDMPKATWKDPVGNSYFSSRWMEDASYLRMKNVTLSYTFSKTLWNFFRSGTIYVTGENLLTFTDYLGMDPEFSYSYAENMQGFDNAKLMQPKTVKMGVNLKF | not soluble
23 | TSTKLNTTTSAAYLSTGIKALDSMLGSKGYQTGSQIIISGRSGTAKTLFATSFAQSAVRQGRKVLFISFEESPNDLIRHVKSINIDLMKYITKKKLHINSRRSVEMGLEDHIISIIELTEEKQFDVLILDPISALLDLGNTMEVKRLFIRFISYMKSLNKTLLFTELIPDYSKELTILGLSSLTETWIRLSNVESNGEFNRLIHIAKARGIKTSNQIKEFYVTDKGINIEAPYLGDNQMMFGSQKSA | not soluble
24 | TTLSCKVTSVEAITDTVYRVRIVPDAAFSFRAGQYLMVVMDERDKRPFSMASTPDEKGFIELHIGASEINLYAKAVMDRILKDHQIVVDIPHGEAWLRDDEERPMILIAGGTGFSYARSILLTALARNPNRDITIYWGGREEQHLYDLCELEALSLKHPGLQVVPVVEQPEAGWRGRTGTVLTAVLQDHGTLAEHDIYIAGRFEMAKIARDLFCSERNAREDRLFGDAFAFI | soluble
